# Results from US6713610.
# B1: I8K4.2 (antibody, V domains shown)
# VH: SLTCAVYGGSFSGYYWTWIRQPPGKGLEWIGEIIHHGNTNYNPSLKSRVSISVDTSKNQFSLTLSSVTAADTAVYYCARGGAVAAFDYWGQGTLVTVSS
# VL: TQSPSSLSASVGDRVTITCQASQDISNYLNWYQQKAGKAPKVLIYAASNLEAGVPSRFSGSGSGTDFTFTISSLQPEDIATYYCQHYDNLLTFGGGTKVEIKR
# Tests used:
# human recombinant IL-8 [1] = target: T1, human recombinant IL-8 (human, UniProt P10145 28-99); test: BIAcore SPR, IL-8 immobilized (81 RU surface), hybridoma supernatant as analyte
# T1 construct: also called hIL8; h-IL-8
# T1 sequence (looked up): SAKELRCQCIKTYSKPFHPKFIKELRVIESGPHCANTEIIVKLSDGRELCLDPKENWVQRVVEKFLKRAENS
# human recombinant IL-8 [2] = target: T1, human recombinant IL-8; test: BIAcore SPR, IL-8 immobilized (134 RU surface), hybridoma supernatant as analyte
binder,measurement,setting,value
B1,Kd,human recombinant IL-8 [1],0.142 nM
same,koff,human recombinant IL-8 [1],0.000817 s⁻¹
same,kon,human recombinant IL-8 [1],5.76e+06 M⁻¹ s⁻¹
same,Kd,human recombinant IL-8 [2],0.196 nM
same,koff,human recombinant IL-8 [2],0.000384 s⁻¹
same,kon,human recombinant IL-8 [2],1.95e+06 M⁻¹ s⁻¹
